The values that follow come from US20120219559A1 (Johns Hopkins, published 2012).

The target of one assay is T1, B7-DCIg (Homo sapiens, UniProt Q9BQ51).
T1 construct: Ig fusion protein purchased from R&D systems; also called human B7-DCIg fusion protein
T1 sequence (fusion protein, looked up): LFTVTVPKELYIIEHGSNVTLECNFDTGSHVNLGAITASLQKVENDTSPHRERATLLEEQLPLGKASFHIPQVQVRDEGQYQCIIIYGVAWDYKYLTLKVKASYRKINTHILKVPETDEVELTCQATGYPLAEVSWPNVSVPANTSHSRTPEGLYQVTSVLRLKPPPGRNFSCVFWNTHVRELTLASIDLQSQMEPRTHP
Nature of the assay: CDS well image, 293T cells transfected with the human gene, stained with the human fusion protein.

Assay [1] deals with T2, human B7-2Ig fusion protein (human, UniProt P42081 26-245).
T2 construct: Bought from R&D Systems; Ig (Fc) part not given
T2 sequence (looked up): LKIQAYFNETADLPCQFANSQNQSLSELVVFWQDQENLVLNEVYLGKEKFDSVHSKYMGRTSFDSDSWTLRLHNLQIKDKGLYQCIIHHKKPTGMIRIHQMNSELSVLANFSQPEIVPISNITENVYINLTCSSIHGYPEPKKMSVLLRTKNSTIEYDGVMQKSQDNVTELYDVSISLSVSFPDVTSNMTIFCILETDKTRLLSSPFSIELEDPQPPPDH
The assay is described as above.

Assay [2] has as its target T3, human B7-1Ig fusion protein (human, UniProt P33681 35-242).
T3 construct: Bought from R&D Systems; Ig (Fc) part not given
T3 sequence (looked up): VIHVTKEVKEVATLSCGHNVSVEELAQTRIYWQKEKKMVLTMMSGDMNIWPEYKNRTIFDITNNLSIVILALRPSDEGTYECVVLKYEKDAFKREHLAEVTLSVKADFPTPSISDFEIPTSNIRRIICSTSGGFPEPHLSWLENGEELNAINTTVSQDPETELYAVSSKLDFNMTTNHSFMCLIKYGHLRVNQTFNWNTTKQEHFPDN
The assay is described as above.

In another assay the target is T4, B7-H1Ig (Homo sapiens, UniProt Q9NZQ7).
T4 construct: Ig fusion protein purchased from R&D systems; also called human B7-H1Ig fusion protein
Described as above.

Assay [3] addresses T5, human B7-H2Ig fusion protein (human, UniProt O75144 19-258).
T5 construct: Ig (Fc) part not given
T5 sequence: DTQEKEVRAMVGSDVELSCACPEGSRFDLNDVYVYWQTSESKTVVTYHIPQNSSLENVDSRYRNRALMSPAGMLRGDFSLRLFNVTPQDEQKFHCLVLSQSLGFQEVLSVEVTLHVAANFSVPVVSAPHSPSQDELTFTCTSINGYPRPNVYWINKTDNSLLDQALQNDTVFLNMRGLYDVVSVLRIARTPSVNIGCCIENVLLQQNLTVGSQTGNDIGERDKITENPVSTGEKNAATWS
The assay can be described thus: flow cytometry on 293T cells transfected with human ICOS.

T4 sequence (Q9NZQ7 19-239 limits assumed): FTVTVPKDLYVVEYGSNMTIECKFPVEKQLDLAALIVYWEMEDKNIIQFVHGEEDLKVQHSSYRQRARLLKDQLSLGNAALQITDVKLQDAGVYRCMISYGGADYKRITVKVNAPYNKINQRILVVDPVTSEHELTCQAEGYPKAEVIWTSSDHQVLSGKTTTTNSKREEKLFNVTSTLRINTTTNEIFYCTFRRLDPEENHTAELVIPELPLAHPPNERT

B1: human ICOS, full length, expressed on cells (ICOS+293T cells) (receptor)
chain: EINGSANYEMFIFHNGGVQILCKYPDIVQQFKMQLLKGGQILCDLTKTKGSGNTVSIKSLKFCHSQLSNNSVSFFLYNLDHSHANYYFCNLSIFDPPPFKVTLTGGYLHIYESQLCCQLKFWLPIGCAAFVVVCILGCILICWLTKKKYSSSVHDPNGEYMFMRAVNTAKKSRLTDVTL
notes: This id also stands for ICOS on human T cells in the functional rows
For the molecule B1, the binding result is reported as “no binding” with B7-DCIg; “no binding” in assay [1]; “no binding” in assay [2]; “no binding” in the assay with B7-H1Ig; “binds” in assay [3].
